# Assay results as given in article PMC6582352.
# B1: siDNA 12 nt (SM013) (ssDNA)
# DNA: CCATCTGTCTTA
# modifications: 5'-phosphate
# Target: CbAgo (Clostridium butyricum, UniProt P0DYD1 1-748)
# Assay: single-molecule TIRM, immobilized CbAgo
binder,measurement,value
B1,binding result,binds
